Entries after “also recorded” stand apart in the source; their conditions may differ.
How the values were obtained:
[1] = system: lymphatic vessels; test: Murine lymphangiogenesis and angiogenesis assay in growth factor MATRIGEL plugs; format: in vivo; settings: mice, 400 ng growth factor
Protocol: (§1) Lymphangiogenesis and angiogenesis assays in MATRIGEL were performed as described (Eliceiri et al, 1999, Mol. Cell 4:915) by injecting subcutaneously into wild-type C57B1/6 mice (n=5) 400 μL of cold MATRIGEL containing 400 ng of bFGF, VEGF-A, or VEGF-C (R&D Systems, Minneapolis, Minn.). Mice were then injected twice at day1 and day3 with 200 μl of blocking anti-α4β1 (PS2) or anti-α5β1 (5H10) antibodies, or isotype control antibody. After 7 days, MATRIGEL plugs were removed, embedded in OCT, frozen and sectioned. Thin sections (5 μm) were immunostained with anti-CD31 antibodies.
For quantification, vessel numbers, tumor foci or pixel number in 10 microscopic fields per cryosection (per animal) were quantified and the mean number of vessels+/−s.e.m. for the entire treatment group was determined.

[2] = system: RFP-LLC cells; test: Experimental footpad injection metastasis study (RFP-LLC); format: in vivo, mice
Protocol: Inguinal lymph node lymphangiogenesis was stimulated by injecting mice intradermally above the left inguinal lymph node with 50 μl of saline or VEGF-C (200 ng per mice) every day for 7 days. Mice were inoculated with 10^6 RFP-LLC cells in a volume of 150 μl in the left footpad. Twenty four hours later, mice were sacrificed. Inguinal, brachial and mesenteric lymph nodes were removed and embedded in OCT for cryosectioning and immunofluorescence. RFP-tumor cell and Lyve-1+pixels were quantified on 5 different sections per lymph node.

[3] = system: LLC cells; test: Transwell migration of LLC cells; format: cell-based, murine; settings: 10, 100 or 500 ng/ml
Protocol: FIG. 29. Analysis of LLC cell expression of integrin α4 and VEGF-R3. A) Expression of VEGF-R3, integrins α5β1 and α4β1 (black lines) on LLC cells was evaluated by flow cytometry. Grey lines depict binding of isotype matched control IgG. While 100% of cells express integrin α5β1, none express α4β1 or VEGF-R3. B) Transwell migration of LLC cells in the presence or absence of serum or VEGF-C at 10, 100 or 500 ng/ml.

[4] = system: lymph nodes; test: Lymph node lymphangiogenesis proximal to implanted VEGF-C MATRIGEL; format: in vivo, mice
Protocol: as §1
(§2) C57BL/6 mice were injected subcutaneously with 350 μl of ice-cold saline or VEGF-C-containing Matrigel (1 μg/ml) proximal to the inguinal lymph node. In parallel, 5×10^5 LLC cells were injected dorsally near the inguinal or brachial lymph nodes. Mice were sacrificed after 1, 7 and 14 days. Mice with stimulated inguinal nodes were also sacrificed after 21 days. Inguinal, brachial and mesenteric lymph nodes were removed and embedded in OCT for cryosectioning and immunohistochemistry.

[5] = system: Lewis lung carcinoma; test: Local VEGF-C stimulation of lymph nodes in LLC tumor-bearing mice; format: in vivo
Protocol: as §2

[6] = system: lymph nodes; test: Systemic or local VEGF-C injections in normal mice, lymph node lymphangiogenesis; format: in vivo

Row | Molecule | invasion of growth factor saturated MATRIGEL by new lymphatic vessels [1] | tumor cell retention in the stimulated inguinal lymph node ([2]; RFP-LLC into footpad, 24 h) | tumor cell retention in unstimulated brachial or mesenteric lymph nodes ([2]; RFP-LLC into footpad, 24 h) | lymphangiogenesis in stimulated inguinal lymph node ([2]; intradermal injections for 7 days, non-tumor bearing mice, versus saline) | LLC cell migration in response to growth factor [3] | lymph node lymphatic vessel density / lymphangiogenesis ([4]; VEGF-C stimulated lymph nodes) | lymph node size ([4]; lymph nodes proximal to implanted MATRIGEL containing VEGF-C) | lymphatic vessel density in draining (inguinal) lymph node ([5]; local injection, versus saline) | lymphangiogenesis and metastasis to other lymph nodes ([5]; local stimulation of inguinal node) | primary tumor growth (tumor volume) ([5]; local stimulation of inguinal node, after 21 days) | time at which tumor metastases were induced ([5]; local stimulation of inguinal node, 21 days for saline treated animals) [days] | lymphangiogenesis in stimulated distant (brachial) lymph node ([5]; stimulation of brachial node) | metastasis to stimulated distant (brachial) lymph node ([5]; stimulation of brachial node) | rate of lymphangiogenesis or metastasis to inguinal or mesenteric nodes ([5]; stimulation of brachial node) | lymph node lymphangiogenesis after local injections proximal to a single lymph node ([6]; normal mice, local) | lymph node lymphangiogenesis after systemic injections ([6]; normal mice, systemic) | blood vessels within lymph nodes (CD31+ pixels/field) ([6]; versus saline)
1 | bFGF: angiogenic growth factor (R&D Systems) [reference compound] | new lymphatic vessels invade |  |  |  |  |  |  |  |  |  |  |  |  |  |  |  | 
2 | VEGF-C: lymphangiogenesis-promoting growth factor (R&D Systems) used as stimulus (protein, UniProt P49767 112-227, looked up) Vascular endothelial growth …: AHYNTEILKSIDNEWRKTQCMPREVCIDVGKEFGVATNTFFKPPCVSVYRCGGCCNSEGLQCMNTSTSYLSKTLFEITVPLSQGPKPVTISFANHTSCRCMSKLDVYRQVHSIIRR | new lymphatic vessels invade | strongly enhanced | not and No statistical difference | significantly induced | do not migrate | significant increase | expanded dramatically in size | significantly increased | no effect | no effect; also recorded: No statistical difference | ≤ 14 | selectively enhanced | accelerated metastasis by one week | without affecting | specifically affected this and not other nodes | Widespread lymph node lymphangiogenesis | no significant effect; also recorded: No statistical difference
